Experimental data reported in IntAct's records for PubMed 17442384.

B1: Suppressor protein STP22 of temperature-sensitive alpha-factor receptor and arginine permease (Saccharomyces cerevisiae), P25604 (parent)
chain: MSANGKISVPEAVVNWLFKVIQPIYNDGRTTFHDSLALLDNFHSLRPRTRVFTHSDGTPQLLLSIYGTISTGEDGSSPHSIPVIMWVPSMYPVKPPFISINLENFDMNTISSSLPIQEYIDSNGWIALPILHCWDPAAMNLIMVVQELMSLLHEPPQDQAPSLPPKPNTQLQQEQNTPPLPPKPKSPHLKPPLPPPPPPQPASNALDLMDMDNTDISPTNHHEMLQNLQTVVNELYREDVDYVADKILTRQTVMQESIARFHEIIAIDKNHLRAVEQAIEQTMHSLNAQIDVLTANRAKVQQFSSTSHVDDEDVNSIAVAKTDGLNQLYNLVAQDYALTDTIECLSRMLHRGTIPLDTFVKQGRELARQQFLVRWHIQRITSPLS
partner: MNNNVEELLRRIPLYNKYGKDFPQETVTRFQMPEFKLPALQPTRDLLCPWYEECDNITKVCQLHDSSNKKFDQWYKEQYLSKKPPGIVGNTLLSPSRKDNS
B2: Suppressor protein STP22 of temperature-sensitive alpha-factor receptor and arginine permease (Saccharomyces cerevisiae), P25604 (parent)
chain: B1 chain
partner: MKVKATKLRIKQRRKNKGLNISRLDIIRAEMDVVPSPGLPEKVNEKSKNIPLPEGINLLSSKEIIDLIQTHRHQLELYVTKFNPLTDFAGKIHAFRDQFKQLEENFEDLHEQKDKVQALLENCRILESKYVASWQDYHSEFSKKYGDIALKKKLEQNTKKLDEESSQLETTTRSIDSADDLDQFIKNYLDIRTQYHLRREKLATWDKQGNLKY
B3: Multivesicular body sorting factor 12 (Saccharomyces cerevisiae), P42939 (parent)
chain: B1 partner
partner: B1 chain
B4: Multivesicular body sorting factor 12 (Saccharomyces cerevisiae), P42939 (parent)
chain: B1 partner
partner: B2 partner

Variants of: B1
Conditions: with mvb12_yeast MVB12, P42939

Variant | effect of a mutation on the interaction
MSANGKISVPEAVVNWLFKVIQPIYNDGRTTFHDSLALLDNFHSLRPRTRVFTHSDGTPQLLLSIYGTISTGEDGSSPHSIPVIMWVPSMYPVKPPFISINLENFDMNTISSSLPIQEYIDSNGWIALPILHCWDPAAMNLIMVVQELMSLLHEPPQDQAPSLPPKPNTQLQQEQNTPPLPPKPKSPHLKPPLPPPPPPQPASNALDLMDMDNTDISPTNHHEMLQNLQTVVNELYREDVDYVADKILTRQTVDQESIARFHEIIAIDKNHLRAVEQAIEQTMHSLNAQIDVLTANRAKVQQFSSTSHVDDEDVNSIAVAKTDGLNQLYNLVAQDYALTDTIECLSRMLHRGTIPLDTFVKQGRELARQQFLVRWHIQRITSPLS [M254D] | decreasing interaction

Variants of: B2
Conditions: with srn2_yeast SRN2, Q99176

Variant | effect of a mutation on the interaction
MSANGKISVPEAVVNWLFKVIQPIYNDGRTTFHDSLALLDNFHSLRPRTRVFTHSDGTPQLLLSIYGTISTGEDGSSPHSIPVIMWVPSMYPVKPPFISINLENFDMNTISSSLPIQEYIDSNGWIALPILHCWDPAAMNLIMVVQELMSLLHEPPQDQAPSLPPKPNTQLQQEQNTPPLPPKPKSPHLKPPLPPPPPPQPASNALDLMDMDNTDISPTNHHEMLQNLQTVVNELYREDVDYVADKILTRQTVDQESIARFHEIIAIDKNHLRAVEQAIEQTMHSLNAQIDVLTANRAKVQQFSSTSHVDDEDVNSIAVAKTDGLNQLYNLVAQDYALTDTIECLSRMLHRGTIPLDTFVKQGRELARQQFLVRWHIQRITSPLS [M254D] | decreasing interaction

Variants of: B3
Conditions: with stp22_yeast STP22, P25604

Variant | effect of a mutation on the interaction
MNNNVEELLRRIPLYNKYGKDFPQETVTRFQMPEFKLPALQPTRDLDCPWYEECDNDTKVCQLHDSSNKKFDQWYKEQYLSKKPPGIVGNTLLSPSRKDNS | decreasing interaction

Variants of: B4
Conditions: with srn2_yeast SRN2, Q99176

Variant | effect of a mutation on the interaction
MNNNVEELLRRIPLYNKYGKDFPQETVTRFQMPEFKLPALQPTRDLDCPWYEECDNDTKVCQLHDSSNKKFDQWYKEQYLSKKPPGIVGNTLLSPSRKDNS | decreasing interaction
